Assay [1] deals with T1, cleaved GP (GPCL): EBOV GP treated with thermolysin, glycan cap removed (Zaire ebolavirus, Mayinga-76, UniProt Q05320). The assay is described as follows: SEC. A general note: SEC sorts molecules by how far they enter the pores of the column.
Target sequence in this assay (Q05320 33-501, chain 1 of 2): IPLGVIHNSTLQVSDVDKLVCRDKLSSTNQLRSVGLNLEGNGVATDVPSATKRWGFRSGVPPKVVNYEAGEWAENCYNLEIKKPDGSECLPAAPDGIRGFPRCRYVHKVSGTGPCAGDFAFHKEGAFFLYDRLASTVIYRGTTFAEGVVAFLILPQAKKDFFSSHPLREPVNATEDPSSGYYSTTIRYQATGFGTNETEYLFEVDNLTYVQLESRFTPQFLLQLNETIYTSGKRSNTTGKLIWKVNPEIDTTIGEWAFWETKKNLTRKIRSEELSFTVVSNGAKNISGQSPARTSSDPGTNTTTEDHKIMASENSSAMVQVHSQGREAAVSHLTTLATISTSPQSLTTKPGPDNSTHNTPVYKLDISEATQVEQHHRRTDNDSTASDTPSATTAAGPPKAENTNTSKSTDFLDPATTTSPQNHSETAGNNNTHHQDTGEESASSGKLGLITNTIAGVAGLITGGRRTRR
Target sequence in this assay (Q05320 33-650, chain 2 of 2): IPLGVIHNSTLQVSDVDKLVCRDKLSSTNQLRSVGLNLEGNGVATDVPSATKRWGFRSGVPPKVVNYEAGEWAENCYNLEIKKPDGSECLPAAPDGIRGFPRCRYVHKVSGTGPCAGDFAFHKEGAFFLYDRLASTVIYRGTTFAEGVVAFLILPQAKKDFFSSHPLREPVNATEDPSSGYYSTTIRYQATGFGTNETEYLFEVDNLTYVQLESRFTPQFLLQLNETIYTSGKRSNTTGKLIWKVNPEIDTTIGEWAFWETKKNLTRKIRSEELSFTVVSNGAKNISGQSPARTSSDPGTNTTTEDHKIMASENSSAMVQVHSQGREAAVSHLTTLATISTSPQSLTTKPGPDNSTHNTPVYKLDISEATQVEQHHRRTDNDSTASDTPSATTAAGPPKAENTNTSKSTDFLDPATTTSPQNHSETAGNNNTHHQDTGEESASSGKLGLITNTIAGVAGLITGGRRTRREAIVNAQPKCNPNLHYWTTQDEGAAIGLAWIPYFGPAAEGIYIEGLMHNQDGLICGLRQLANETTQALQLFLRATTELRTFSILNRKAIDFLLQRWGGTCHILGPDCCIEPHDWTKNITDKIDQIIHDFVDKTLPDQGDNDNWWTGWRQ
Assay [2] has as its target T1, cleaved GP (GPCL): EBOV GP treated with …. The experiment in a line: SPR. For orientation: SPR reads the build-up and loss of mass on a sensor chip optically.

3 molecules from paper doi:10.1101/2022.10.11.511805 (bioRxiv, 2022) can be followed below.

B1: REGN3470 Fab (Fab, V domains shown)
VH: QVQLVESGGGVVQPGRSLRLSCAASGFTFNNYGMHWVRQAPGMGLEWVAVIWHDGSDKYYADSVKGRFTISRDNSKNTLYLQMNSLRAEDTAVYYCARNWNLFDYWGQGTLVTVSS
VL: DIQMTQSPSSLSASVGDRITITCRASQSISTYLHWYQQKPGKAPKLLIYAASTLQSGVPSRFSGSGSGTDFTLTISSLQPEDFATYYCQQSFSTPPINFGQGTKLEIK
With B1, the binding result in assay [1] was “no binding”.

B2: REGN3471 (odesivimab) (antibody, V domains shown)
VH: EVQLVESGGGLVQPGGSLRLSCAASGFTFSSYDMHWVRQATGKGLEWVSAIGTAGDTYYPGSVKGRFTISRENAKNSLYLQMNSLRAGDTAVYYCARTWFGELYFDYWGQGTLVTVSS
VL: not shown
One may read the Kd as the concentration at which binding is half-saturated. In the case of B2, in assay [2], binding was put at a Kd of 15.8 nM and the “fold reduction of the binding half-life relative to GP” value came out at 4 fold.

B3: REGN3479 (maftivimab) (antibody, V domains shown)
VH: EVQLVESGGGLVQPGGSLRLSCAASGFTSSSYAMNWVRQAPGKGLEWVSTISGMGGSTYYADSVKGRFTISRDNSKNTLYLQMNSLRAEDTAVYYCAKRGYPHSFDIWGQGTMVTVSS
VL: not shown
B3 registered a Kd in assay [2] of 0.14 nM. This lies in the sub-nanomolar range.
